Measurements reported in patent US20260209311A1, “MODIFIED G PROTEIN COUPLED RECEPTOR AND USE THEREOF” (ALPHELIX BIOTECH CO., LTD., priority 2023, published 2026).

Target: T1, modified GPR75 (GPR75-GFP10-11 modified protein complex) (Homo sapiens, UniProt O95800, A308G/DEL234-307/I309H/INS313[…]/N310Y)
T1 construct: obesity-related receptor GPR75 (1-395); signal peptide (N); made in house; The clamp protein is made in E. coli Rosetta 2 (DE3), as described for GFP-clamp
Experiment: SPR determination of affinity of purified modified GPR75 to CCL5 ligand
Assay type: binding
Settings: Biacore 8K, Series S Sensor SA chip, pH 7.4; values only in FIG. 79 C
Protocol: The purification and identification method of the modified GPR75 fusion protein refers to Example 4. The difference is that during the purification, GFP-clamp-avi-biotin was added rather than GFP-clamp. The molecular sieve chromatography result graph of the modified fusion protein is seen in A of FIG. 79, and the SDS gel electrophoresis result graph of the modified fusion protein is seen in B of FIG. 79.
The purified GPR75 was used for determination of affinity to CCL5 ligand via surface plasmon resonance (SPR). The used instrument was Biacore 8K, and the chip was Series S Sensor SA Chip:SA-2429. Both a protein immobilization buffer and a running buffer contained 20 mM HEPES, 150 mM NaCl, 0.005% LMNG and 0.0005% CHS, pH 7.4. The affinity determination results are seen in C of FIG. 79.

In the case of “CCL5: CCL5 ligand of the obesity-related receptor GPR75”, the “affinity (SPR)” value is reported as “close to reported results”.
